From patent US20240409620A1 (published 2024) come the findings set out here.

Broadly, the EC50 is the concentration that produces a half-maximal response. A lower EC50 goes with higher potency in that assay. One may read the Kd as the equilibrium constant for the complex coming apart. A low value points to higher affinity.

Where two headings read alike, the source gives them in different places.

The target of assay [1] is T1, RSV/B/B9320 pre-fusion F protein (respiratory syncytial virus RSV/B/B9320). As to the kind of experiment: ELISA. Background: ELISA stands for enzyme-linked immunosorbent assay.
Assay [2] addresses T1, RSV/B/B9320 pre-fusion F protein. As to the kind of experiment: BLI. On the technique in general: In BLI a coated tip is dipped into the sample, and binding shifts an interference pattern.
Assay [3] deals with T2, RSV/A/A2 pre-fusion F protein (respiratory syncytial virus RSV/A/A2, UniProt P03420 26-109). As to the kind of experiment: BLI.
Assay [4] deals with T2, RSV/A/A2 pre-fusion F protein. As to the kind of experiment: ELISA.
The target is the same in assay [5]. As to the kind of experiment: BLI. This is another data set of the same source.

B1: 4F1En1 (VH-S75R) (antibody, V domains shown)
VH: QVQLVESGGGVVQPGRSLRLSCAASGFSFYSYSVHWVRQAPGKGLEWVADVVYDGNHQHYTDSVKGRFTISRDTRKNTVYLQMGSLRAEDTALYYCTARSLVITLAGAGRDDYWGQGTTVTVSS
VL: DIVMTQSPLSLPVTPGEPASISCRSSQSLLHSNGYTYLDWYLQKPGQSPQLLIFLGSSRASGVPDRFSGSGSGTDFTLKISRVEAEDVGVYYCVQDLQTSLTFGGGTKLEIKR
Regarding B1, the EC50 stood at 0.0565 µg/mL in assay [1] and 0.0245 µg/mL in assay [4]. In addition, the Kd is 1.8 pM in assay [2] and less than 1 pM in assay [3].

B2: fully human monoclonal antibody 4F1 wild type (antibody, V domains shown)
VH: EVQLVQSGGGVVRPGRSLRLSCAASGFSFYSYSVHWVRQAPGKGLEWVADVVYDGNHQHYTESVRGRFSISRDTSTNTVYLQMGSLRPEDTALYYCTARSLVITLAGAGRDDYWGQGTRVTVSS
VL: DIVMTQSPLSLSVTPGEPASISCKSSQSLLHSNGYTYLDWYLQKPGKSPQLLIFLGSSRASGVPARFSGSGSGTDFTLEISRVEAEDVGVYYCVQDLQTSLTFGGGTKVDIK
In turn, B2 returned an EC50 in assay [1] of 0.111 µg/mL. Also, the Kd in assay [2] was 68.4 pM.

B3: 4F1 germline reversion (antibody, V domains shown)
VH: QVQLVESGGGVVQPGRSLRLSCAASGFSFYSYSVHWVRQAPGKGLEWVADVVYDGNHQHYTDSVKGRFTISRDTSKNTVYLQMGSLRAEDTALYYCTARSLVITLAGAGRDDYWGQGTTVTVSS
VL: DIVMTQSPLSLPVTPGEPASISCRSSQSLLHSNGYTYLDWYLQKPGQSPQLLIFLGSSRASGVPDRFSGSGSGTDFTLKISRVEAEDVGVYYCVQDLQTSLTFGGGTKLEIKR
With B3, the EC50 in assay [1] stood at 0.0781 µg/mL; in assay [4] it was 0.0536 µg/mL.

B4: MEDI8897 (antibody, V domains shown)
VH: QVQLVQSGAEVKKPGSSVMVSCQASGGLLEDYIINWVRQAPGQGPEWMGGIIPVLGTVHYGPKFQGRVTITADESTDTAYMELSSLRSEDTAMYYCATETALVVSETYLPHYFDNWGQGTLVTVSS
VL: DIQMTQSPSSLSAAVGDRVTITCQASQDIVNYLNWYQQKPGKAPKLLIYVASNLETGVPSRFSGSGSGTDFSLTISSLQPEDVATYYCQQYDNLPLTFGGGTKVEIK
Consider B4, for which the figures for the Kd in assay [2] and in assay [5] were 660 pM and 17.2 pM, respectively.

B5: Palivizumab (SYNAGIS) (antibody, V domains shown)
VH: QVTLRESGPALVKPTQTLTLTCTFSGFSLSTSGMSVGWIRQPPGKALEWLADIWWDDKKDYNPSLKSRLTISKDTSKNQVVLKVTNMDPADTATYYCARSMITNWYFDVWGAGTTVTVSS
VL: DIQMTQSPSTLSASVGDRVTITCKCQLSVGYMHWYQQKPGKAPKLLIYDTSKLASGVPSRFSGSGSGTEFTLTISSLQPDDFATYYCFQGSGYPFTFGGGTKLEIK
For B5, the figures for the Kd in assay [2] and in assay [5] were 362 pM and 40.7 pM, respectively.
